PMC3174058 (Biochemical Journal, 2011)
Values joined by “and” are separate entries in the source; they are usually repeats but may differ in a detail not shown here. Equal entries are not always repeated.

What was measured:
[1] = molecular target: Recombinant mouse SOUL; settings: printed as range in words; ref [19] Sato et al., 2004; cited from earlier work
[2] = system: 15N-labelled SOUL; assay: 15N-1H HSQC NMR titration of 15N-labelled SOUL with haemin; type: binding, human; settings: 0.5, 1, 2, 3 and 4 equivalents haemin, Tris/HCl buffer, 25 °C; more than 1 day of observation
[3] = UV–visible spectrum of haemin alone; type: physicochemical; settings: 10 μM haemin; 20 mM Tris/HCl (pH 7.5), 0.15 M NaCl; 30 min, 25 °C
[4] = system: caspase 8; assay: caspase 8 cleavage experiment; type: biochemical; settings: human BID as control; results not shown
[5] = system: mitochondrial permeability transition / cell death; settings: cited from earlier work
[6] = molecular target: human Bcl-xL lacking only the C-terminal transmembrane domain (after amino acid 209) (human, UniProt Q07817-1 1-209); assay: NMR titration
human Bcl-xL lacking only the C-terminal transmembrane domain (after amino acid 209), sequence (Q07817 1-209): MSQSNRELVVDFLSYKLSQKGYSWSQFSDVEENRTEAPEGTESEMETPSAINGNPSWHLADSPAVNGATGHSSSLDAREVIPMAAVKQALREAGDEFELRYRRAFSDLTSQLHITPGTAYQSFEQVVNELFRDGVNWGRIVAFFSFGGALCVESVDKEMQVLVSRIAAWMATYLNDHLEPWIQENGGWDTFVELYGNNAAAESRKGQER

For `C=CC1=C(C)c2cc3[n-]c(cc4[n-]c(cc5nc(cc1n2)C(C)=C5C=C)c(C)c4CCC(=O)O)c(CCC(=O)O)c3C.[Fe+2]` [haem], the “dissociation constant for haem binding” value [1] is listed as “nanomolar range”.

In the case of `C=CC1=C(C)c2cc3[n-]c(cc4nc(cc5[n-]c(cc1n2)c(C)c5C=C)C(C)=C4CCC(=O)O)c(CCC(=O)O)c3C.[Cl-].[Fe+3]` [haemin], the “change of SOUL HSQC spectrum with haemin” value [2] is reported as “the spectrum remained unaltered” and the “haemin absorption peak position, haemin alone” value [3] is reported as 390 nM.

B1: SOUL: human SOUL protein, recombinant, expressed in E. coli, histidine tag removed by thrombin (protein)
chain: MAEPLQPDPGAAEDAAAQAVETPGWKAPEDAGPQPGSYEIRHYGPAKWVSTSVESMDWDSAIQTGFTKLNSYIQGKNEKEMKIKMTAPVTSYVEPGSGPFSESTITISLYIPSEQQFDPPRPLESDVFIEDRAEMTVFVRSFDGFSSAQKNQEQLLTLASILREDGKVFDEKVYYTAGYNSPVKLLNRNNEVWLIQKNEPTKENE
modifications: left off: His tag, C-terminal, cleaved
In the case of B1, the “cleavage by caspase 8” value [4] is listed as “is not a substrate of this enzyme”, the “effect of deletion of putative BH3 domain on apoptotic effects” value ([5]; human SOUL, BH3 domain deleted, ref [21] Szigeti et al., 2010) is listed as “abolished the apoptotic effects of SOUL” and the “induction of MPT” value ([5]; leads to mitochondrial swelling and cell death, ref [20] Szigeti et al., 2006) is listed as “can induce the MPT”.

For SAQKNQEQLLTLASILREDGKVFDEK [SOUL BH3 peptide (26-amino-acid-long peptide spanning residues 147–172 of human SOUL)], the Kd [6] was 47.8 µM and 41.3 µM.
